pKd: −log10 of the molar value.
How the values were obtained:
[1] = molecular target: RGA5-HMA (labelled, MST) (rice) (UniProt F7J0N2); test: MST; […]; 20 mM PBS, 150 mM NaCl, 0.05% Tween-20, pH 7.4; […]
[2] = molecular target: RGA5-HMA5 (recombinant, MST and HDX-MS) (rice) (UniProt F7J0N2); test: as above

Question: With “AVR-Pia (recombinant, MST) (from UniProt B9WZW9) (natural protein; other documents disagree on this pair)” as the substance, how does the pKd [1] read?
Answer: Its pKd is 4.46.

Question: With “AVR-PikD (recombinant, MST and HDX-MS) (natural protein)” as the substance, how does the pKd [2] read?
Answer: The pKd was 4.92.
